Reference: US20180155451A1 (published 2018)

T1: FcγRIIb (human, UniProt P31994 43-217)
T1 construct: extracellular domain; also called FcgRIIb; 2b
T1 sequence (looked up): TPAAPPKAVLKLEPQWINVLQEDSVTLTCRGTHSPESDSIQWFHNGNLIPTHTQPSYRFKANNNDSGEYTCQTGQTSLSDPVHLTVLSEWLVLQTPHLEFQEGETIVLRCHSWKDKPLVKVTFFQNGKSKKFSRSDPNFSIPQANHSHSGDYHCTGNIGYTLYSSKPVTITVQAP

B1: GpH7-A5/GpH7-B3 variant T335_10E/GpL16-k0 (antibody, human IgG1, kappa)
heavy 1: not shown
heavy 2: not shown
light: DIVMTQSPLSLPVTPGEPASISCQASESLVHSNRNTYLHWYLQKPGQSPQLLIYKVSNRFSGVPDRFSGSGSGTDFTLKISRVEAEDVGVYYCSQNTHVPPTFGQGTKVEIERTVAAPSVFIFPPSDEQLKSGTASVVCLLNNFYPREAKVQWKVDNALQSGNSQESVTEQDSKDSTYSLSSTLTLSKADYEKHKVYACEVTHQGLSSPVTKSFNRGEC
notes: heterodimerized IgG1, mutation in one H chain only; also called He Ab
B2: GpH7-A5/GpH7-B3 variant I336_03V/GpL16-k0 (antibody, human IgG1, kappa)
heavy 1: not shown
heavy 2: not shown
light: B1 light
notes: as for B1
B3: GpH7-A5/GpH7-B3 variant K334_04F/GpL16-k0 (antibody, human IgG1, kappa)
heavy 1: not shown
heavy 2: not shown
light: B1 light
notes: as for B1
B4: GpH7-A5/GpH7-B3 variant K326_08L/GpL16-k0 (antibody, human IgG1, kappa)
heavy 1: not shown
heavy 2: not shown
light: B1 light
notes: as for B1
B5: GpH7-A5/GpH7-B3 variant K334_10E/GpL16-k0 (antibody, human IgG1, kappa)
heavy 1: not shown
heavy 2: not shown
light: B1 light
notes: as for B1
B6: GpH7-A5/GpH7-B3 variant K334_15Y/GpL16-k0 (antibody, human IgG1, kappa)
heavy 1: not shown
heavy 2: not shown
light: B1 light
notes: as for B1
B7: GpH7-A5/GpH7-B3 variant S267_09D/GpL16-k0 (antibody, human IgG1, kappa)
heavy 1: not shown
heavy 2: not shown
light: B1 light
notes: as for B1
B8: GpH7-A5/GpH7-B3 variant K334_14T/GpL16-k0 (antibody, human IgG1, kappa)
heavy 1: not shown
heavy 2: not shown
light: B1 light
notes: as for B1
B9: GpH7-A5/GpH7-B3 variant S337_10E/GpL16-k0 (antibody, human IgG1, kappa)
heavy 1: not shown
heavy 2: not shown
light: B1 light
notes: as for B1
B10: GpH7-A5/GpH7-B3 variant K326_15Y/GpL16-k0 (antibody, human IgG1, kappa)
heavy 1: not shown
heavy 2: not shown
light: B1 light
notes: as for B1
B11: GpH7-A5/GpH7-B3 variant I336_13S/GpL16-k0 (antibody, human IgG1, kappa)
heavy 1: not shown
heavy 2: not shown
light: B1 light
notes: as for B1
B12: GpH7-A5/GpH7-B3 variant S337_18N/GpL16-k0 (antibody, human IgG1, kappa)
heavy 1: not shown
heavy 2: not shown
light: B1 light
notes: as for B1
B13: GpH7-A5/GpH7-B3 variant K334_02A/GpL16-k0 (antibody, human IgG1, kappa)
heavy 1: not shown
heavy 2: not shown
light: B1 light
notes: as for B1
B14: GpH7-A5/GpH7-B3 variant I336_09D/GpL16-k0 (antibody, human IgG1, kappa)
heavy 1: not shown
heavy 2: not shown
light: B1 light
notes: as for B1
B15: GpH7-A5/GpH7-B3 variant K326_06M/GpL16-k0 (antibody, human IgG1, kappa)
heavy 1: not shown
heavy 2: not shown
light: B1 light
notes: as for B1
B16: GpH7-A5/GpH7-B3 variant S267_02A/GpL16-k0 (antibody, human IgG1, kappa)
heavy 1: not shown
heavy 2: not shown
light: B1 light
notes: as for B1
B17: GpH7-A5/GpH7-B3 variant K334_08L/GpL16-k0 (antibody, human IgG1, kappa)
heavy 1: not shown
heavy 2: not shown
light: B1 light
notes: as for B1
B18: GpH7-A5/GpH7-B3 variant K326_04F/GpL16-k0 (antibody, human IgG1, kappa)
heavy 1: not shown
heavy 2: not shown
light: B1 light
notes: as for B1
B19: GpH7-A5/GpH7-B3 variant I332_15Y/GpL16-k0 (antibody, human IgG1, kappa)
heavy 1: not shown
heavy 2: not shown
light: B1 light
notes: as for B1
B20: GpH7-A5/GpH7-B3 variant Q295_14T/GpL16-k0 (antibody, human IgG1, kappa)
heavy 1: not shown
heavy 2: not shown
light: B1 light
notes: as for B1
B21: GpH7-A5/GpH7-B3 variant K334_18N/GpL16-k0 (antibody, human IgG1, kappa)
heavy 1: not shown
heavy 2: not shown
light: B1 light
notes: as for B1
B22: GpH7-A5/GpH7-B3 variant Q295_02A/GpL16-k0 (antibody, human IgG1, kappa)
heavy 1: not shown
heavy 2: not shown
light: B1 light
notes: as for B1
B23: GpH7-A5/GpH7-B3 variant K326_14T/GpL16-k0 (antibody, human IgG1, kappa)
heavy 1: not shown
heavy 2: not shown
light: B1 light
notes: as for B1
B24: GpH7-A5/GpH7-B3 variant I336_14T/GpL16-k0 (antibody, human IgG1, kappa)
heavy 1: not shown
heavy 2: not shown
light: B1 light
notes: as for B1
B25: GpH7-A5/GpH7-B3 variant K334_16H/GpL16-k0 (antibody, human IgG1, kappa)
heavy 1: not shown
heavy 2: not shown
light: B1 light
notes: as for B1
B26: GpH7-A5/GpH7-B3 variant K334_07I/GpL16-k0 (antibody, human IgG1, kappa)
heavy 1: not shown
heavy 2: not shown
light: B1 light
notes: as for B1
B27: GpH7-A5/GpH7-B3 variant I336_06M/GpL16-k0 (antibody, human IgG1, kappa)
heavy 1: not shown
heavy 2: not shown
light: B1 light
notes: as for B1
B28: GpH7-A5/GpH7-B3 variant I332_19Q/GpL16-k0 (antibody, human IgG1, kappa)
heavy 1: not shown
heavy 2: not shown
light: B1 light
notes: as for B1
B29: GpH7-A5/GpH7-B3 variant K334_09D/GpL16-k0 (antibody, human IgG1, kappa)
heavy 1: not shown
heavy 2: not shown
light: B1 light
notes: as for B1
B30: GpH7-A5/GpH7-B3 variant K326_10E/GpL16-k0 (antibody, human IgG1, kappa)
heavy 1: not shown
heavy 2: not shown
light: B1 light
notes: as for B1
B31: GpH7-A5/GpH7-B3 variant K326_03V/GpL16-k0 (antibody, human IgG1, kappa)
heavy 1: not shown
heavy 2: not shown
light: B1 light
notes: as for B1
B32: GpH7-A5/GpH7-B3 variant I336_10E/GpL16-k0 (antibody, human IgG1, kappa)
heavy 1: not shown
heavy 2: not shown
light: B1 light
notes: as for B1
B33: GpH7-A5/GpH7-B3 variant K326_19Q/GpL16-k0 (antibody, human IgG1, kappa)
heavy 1: not shown
heavy 2: not shown
light: B1 light
notes: as for B1
B34: GpH7-A5/GpH7-B3 variant K326_09D/GpL16-k0 (antibody, human IgG1, kappa)
heavy 1: not shown
heavy 2: not shown
light: B1 light
notes: as for B1
B35: GpH7-A5/GpH7-B3 variant Q295_10E/GpL16-k0 (antibody, human IgG1, kappa)
heavy 1: not shown
heavy 2: not shown
light: B1 light
notes: as for B1
B36: GpH7-A5/GpH7-B3 variant I336_02A/GpL16-k0 (antibody, human IgG1, kappa)
heavy 1: not shown
heavy 2: not shown
light: B1 light
notes: as for B1
B37: GpH7-A5/GpH7-B3 variant K334_05P/GpL16-k0 (antibody, human IgG1, kappa)
heavy 1: not shown
heavy 2: not shown
light: B1 light
notes: as for B1
B38: GpH7-A5/GpH7-B3 variant K334_03V/GpL16-k0 (antibody, human IgG1, kappa)
heavy 1: not shown
heavy 2: not shown
light: B1 light
notes: as for B1
B39: GpH7-A5/GpH7-B3 variant S337_09D/GpL16-k0 (antibody, human IgG1, kappa)
heavy 1: not shown
heavy 2: not shown
light: B1 light
notes: as for B1
B40: GpH7-A5/GpH7-B3 variant K334_19Q/GpL16-k0 (antibody, human IgG1, kappa)
heavy 1: not shown
heavy 2: not shown
light: B1 light
notes: as for B1
B41: GpH7-A5/GpH7-B3 variant S239_09D/GpL16-k0 (antibody, human IgG1, kappa)
heavy 1: not shown
heavy 2: not shown
light: B1 light
notes: as for B1
B42: GpH7-A5/GpH7-B3 variant K334_13S/GpL16-k0 (antibody, human IgG1, kappa)
heavy 1: not shown
heavy 2: not shown
light: B1 light
notes: as for B1
B43: GpH7-A5/GpH7-B3 variant I336_18N/GpL16-k0 (antibody, human IgG1, kappa)
heavy 1: not shown
heavy 2: not shown
light: B1 light
notes: as for B1
B44: GpH7-A5/GpH7-B3 variant S298_14T/GpL16-k0 (antibody, human IgG1, kappa)
heavy 1: not shown
heavy 2: not shown
light: B1 light
notes: as for B1
B45: GpH7-A5/GpH7-B3 variant K326_07I/GpL16-k0 (antibody, human IgG1, kappa)
heavy 1: not shown
heavy 2: not shown
light: B1 light
notes: as for B1
B46: GpH7-A5/GpH7-B3 variant T335_07I/GpL16-k0 (antibody, human IgG1, kappa)
heavy 1: not shown
heavy 2: not shown
light: B1 light
notes: as for B1
B47: GpH7-A5/GpH7-B3 variant D265_15Y/GpL16-k0 (antibody, human IgG1, kappa)
heavy 1: not shown
heavy 2: not shown
light: B1 light
notes: heterodimerized antibody, mutation in the GpH7-B3 chain only; also called He Ab
B48: GpH7-A5/GpH7-B3 variant D265_20W/GpL16-k0 (antibody, human IgG1, kappa)
heavy 1: not shown
heavy 2: not shown
light: B1 light
notes: as for B47
B49: GpH7-A5/GpH7-B3 variant V266_12R/GpL16-k0 (antibody, human IgG1, kappa)
heavy 1: not shown
heavy 2: not shown
light: B1 light
notes: as for B47

Biological target: T2, FcγRIIIa extracellular domain with C-terminal His tag (human, UniProt P08637 17-208)
T2 construct: extracellular domain; also called FcgRIIIa; 3a
T2 sequence (P08637 17-208): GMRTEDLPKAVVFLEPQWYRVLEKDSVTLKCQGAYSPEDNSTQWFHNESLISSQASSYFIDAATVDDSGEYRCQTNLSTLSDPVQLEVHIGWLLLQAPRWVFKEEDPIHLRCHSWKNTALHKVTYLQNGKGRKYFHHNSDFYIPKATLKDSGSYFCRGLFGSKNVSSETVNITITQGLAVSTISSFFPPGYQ
Experiment: SPR, relative to GpH7-A5/GpH7-B3/GpL16-k0

Binder | He/Con_3a
B1 | 107 % of control (=100)
B2 | 112 % of control (=100)
B3 | 148 % of control (=100)
B4 | 114 % of control (=100)
B5 | 181 % of control (=100)
B6 | 141 % of control (=100)
B7 | 181 % of control (=100)
B8 | 141 % of control (=100)
B9 | 105 % of control (=100)
B10 | 112 % of control (=100)
B11 | 102 % of control (=100)
B12 | 104 % of control (=100)
B13 | 147 % of control (=100)
B14 | 106 % of control (=100)
B15 | 115 % of control (=100)
B16 | 150 % of control (=100)
B17 | 143 % of control (=100)
B18 | 103 % of control (=100)
B19 | 101 % of control (=100)
B20 | 115 % of control (=100)
B21 | 136 % of control (=100)
B22 | 106 % of control (=100)
B23 | 126 % of control (=100)

Binder | He/Con_3a
B24 | 108 % of control (=100)
B25 | 134 % of control (=100)
B26 | 151 % of control (=100)
B27 | 109 % of control (=100)
B28 | 110 % of control (=100)
B29 | 160 % of control (=100)
B30 | 124 % of control (=100)
B31 | 122 % of control (=100)
B32 | 119 % of control (=100)
B33 | 106 % of control (=100)
B34 | 134 % of control (=100)
B35 | 100 % of control (=100)
B36 | 111 % of control (=100)
B37 | 134 % of control (=100)
B38 | 150 % of control (=100)
B39 | 110 % of control (=100)
B40 | 136 % of control (=100)
B41 | 166 % of control (=100)
B42 | 145 % of control (=100)
B43 | 104 % of control (=100)
B44 | 113 % of control (=100)
B45 | 139 % of control (=100)
B46 | 107 % of control (=100)

Biological target: T1, FcγRIIb
Experiment: SPR (Biacore), antibody captured, FcγR as analyte; relative binding
Method: The heterodimerized antibodies He Abs in which one of the H chains was introduced with an alteration were assayed for their binding activities to each activating FcγR and inhibitory FcγR according to the method described in Example 4. […] The activating FcγRs in FIGS. 26, 27, 28, and 29 are FcγRIa, FcγRIIa (R), FcγRIIa (H), and FcγRIIIa, respectively.
Analysis of interaction between objective antibody and the FcγR was carried out using Biacore T100 (GE Healthcare). HBS-EP+ (GE Healthcare) was used as the running buffer, and the measurement temperature was set to 25° C. Chips produced by immobilizing the antigen peptide by the amine coupling method to a Series S Sencor Chip CM5 (GE Healthcare), or alternatively, chips produced by allowing preliminarily biotinylated antigen peptides to interact with and immobilize onto a Series S Sensor Chip SA (certified) (GE Healthcare) were used. Antibodies of interest were captured onto an antigen peptide-immobilized chip, and allowed to interact to each FcγR diluted with running buffer. To regenerate and repeatedly use the chip, the antibodies captured on the chip were washed off by reacting 10 mM glycine-HCl, pH 1.5.

Binder | He/Con_2b (IIb binding)
B47 | 0.6 % of GpH7-A5/GpH7-B3/GpL16-k0 (=100)
B48 | 1.1 % of GpH7-A5/GpH7-B3/GpL16-k0 (=100)
B49 | -1.1 % of GpH7-A5/GpH7-B3/GpL16-k0 (=100)
